# Publication PMC3894171, “Defining NELF-E RNA Binding in HIV-1 and Promoter-Proximal Pause Regions”
# T1: dNELF-E (Drosophila, UniProt P92204 1-280)
# T1 sequence: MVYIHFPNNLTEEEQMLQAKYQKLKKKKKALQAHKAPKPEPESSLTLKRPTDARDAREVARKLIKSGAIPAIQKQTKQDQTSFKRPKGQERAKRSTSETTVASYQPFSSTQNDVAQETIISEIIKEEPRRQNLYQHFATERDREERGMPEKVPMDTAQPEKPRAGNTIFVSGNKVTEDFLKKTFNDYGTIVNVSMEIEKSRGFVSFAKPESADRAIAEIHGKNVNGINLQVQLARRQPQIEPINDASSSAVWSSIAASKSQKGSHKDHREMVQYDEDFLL
# B1: HIV-1 TAR (structured_RNA)
# RNA: GGUCUCUCUGGUUAGACCAGAUCUGAGCCUGGGAGCUCUCUGGCUAACUAGGGAACC
# B2: HIV-1 TAR+A (structured_RNA)
# RNA: GGUCUCUCUGGUUAGACCAGAUCUGAGCCUGAGGAGCUCUCUGGCUAACUAGGGAACC
# B3: Napt25min (structured_RNA)
# RNA: GGUCUCCAACUGAGGAUACCGCUCGAGGAAGCGAGUGGCGAUUUGGAGACCU
# Key:
# Settings in all cases: protein: recombinant, tags: N-terminal His6 (pHIS-parallel1), label: 3' fluorescein (5-thiosemicarbazide)
# [1] = molecular target: T1, dNELF-E; assay: F-EMSA; 10 mM HEPES-NaOH pH 7.5, 100 mM NaCl, 25 mM KCl, 1 mM MgCl2, 0.02% Tween-20, 0.01% IGEPAL CA-630, 10 µg/ml yeast tRNA; 2 nM RNA, 0-2000 nM protein, 1-2 h, binding temperature not stated; gel 5% acrylamide 0.5X TBE at 4 °C
# [2] = molecular target: T2, hNELF-E (human, UniProt P18615 1-380); assay: as above
# [3] = molecular target: T1, dNELF-E; assay: fluorescence polarization; 10 mM HEPES-NaOH pH 7.5, 100 mM NaCl, 25 mM KCl, 1 mM MgCl2, 0.02% Tween-20, 0.01% IGEPAL CA-630, 10 µg/ml yeast tRNA; 2 nM RNA, 0-2000 nM protein, 1-2 h, binding temperature not stated; gel 5% acrylamide 0.5X TBE at 4 °C
# [4] = molecular target: T2, hNELF-E; assay: as above
# [5] = no predicted secondary structure
# T2 sequence (P18615 whole entry): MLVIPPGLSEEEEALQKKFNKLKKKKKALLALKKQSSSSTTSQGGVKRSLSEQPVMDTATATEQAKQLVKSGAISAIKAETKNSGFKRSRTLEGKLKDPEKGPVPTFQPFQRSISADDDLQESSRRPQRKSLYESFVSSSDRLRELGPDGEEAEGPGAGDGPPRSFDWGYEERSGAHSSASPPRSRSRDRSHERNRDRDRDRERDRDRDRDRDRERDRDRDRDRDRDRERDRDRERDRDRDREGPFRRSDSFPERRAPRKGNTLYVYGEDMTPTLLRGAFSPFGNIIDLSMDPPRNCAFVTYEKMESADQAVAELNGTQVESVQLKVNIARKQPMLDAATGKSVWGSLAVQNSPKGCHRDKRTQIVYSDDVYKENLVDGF
binder,measurement,setting,value
GGCCCCACUGAGGAUGCCCACGGGCGAUUGGGGCCA (structured_RNA) [Napt1min],Kd,[1]; putative K-turn stem-loop,44 ± 22 nM
same,Kd,[2]; putative K-turn stem-loop,420 ± 90 nM
same,Kd,[3]; putative K-turn stem-loop,21 ± 7 nM
same,Kd,[4]; putative K-turn stem-loop,140 ± 10 nM
B1,Kd,[1]; hairpin with UCU bulge,350 ± 35 nM
same,Kd,[2]; hairpin with UCU bulge,300 ± 20 nM
same,Kd,[3]; hairpin with UCU bulge,130 ± 10 nM
same,Kd,[4]; hairpin with UCU bulge,200 ± 10 nM
B2,Kd,[1]; hairpin with UCU bulge,59 ± 2 nM
same,Kd,[2]; hairpin with UCU bulge,250 ± 20 nM
same,Kd,[3]; hairpin with UCU bulge,82 ± 1 nM
same,Kd,[4]; hairpin with UCU bulge,250 ± 20 nM
B3,Kd,[1]; putative K-turn stem-loop,53 ± 9 nM
same,Kd,[3]; putative K-turn stem-loop,30 ± 2 nM
GGCCCCACUGAGGAUGCCCACGGGCGUCCUCAGUGGGGCCA (structured_RNA) [Napt1+hairpin],Kd,"[1]; hairpin, NBE base-paired",810 ± 50 nM
same,Kd,"[3]; hairpin, NBE base-paired",470 ± 170 nM
GGGGACUGAGGAGCAACACGGGCGAUUGGGGCCA (ssRNA) [Napt1-Δstem],Kd,[1]; [5],205 ± 20 nM
same,Kd,[3]; [5],270 ± 130 nM
GGCCCCAUCAAAGAUGCCCACGGGCGAUUGGGGCCA (structured_RNA) [Napt1NBEmut],Kd,[1]; predicted structure kept as in Napt1min,880 ± 170 nM
